According to the supplement of paper PMC10724198:
± gives the standard deviation of the averaged measurements.

Key:
Assay in all cases: protein stability index of tFT-peptide fusion (C-terminal peptide) (PSI (0-1 scale)); higher = more stable (slower turnover)
Saccharomyces cerevisiae [1] = conditions: temperature: 30 C
Protocol: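 MPS profiling in S. cerevisiae of the yeast C-terminome library: the last 12 aa of each annotated ORF are fused to the C-terminus of a sfGFP-mCherry timer, after a GGGS linker. Cells are FACS-sorted into 8 mCherry/sfGFP bins and deep-sequenced. PSI runs from 0 (unstable) to 1 (stable); wild type and das1Δ backgrounds, two technical replicates each.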

Saccharomyces cerevisiae [2] = system: Saccharomyces cerevisiae
Protocol: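 MPS profiling in S. cerevisiae of the tFT-X12 degron library: putative degron peptides plus stable controls, 12 aa, fused to the C-terminus of a sfGFP-mCherry timer. Cells are FACS-sorted into 8 mCherry/sfGFP bins and deep-sequenced. PSI runs from 0 (unstable) to 1 (stable). Backgrounds are wild type, das1Δ and doa10Δ at 30 °C, and wild type, das1Δ, cdc34-1 and cdc53-1 at 37 °C; 2-3 technical replicates each.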

Saccharomyces cerevisiae [3] = conditions: genetic background: wild type; temperature: 30 C
[4] = genetic background: das1 deletion
[5] = genetic background: cdc34-1, temperature: 37 C
[6] = genetic background: cdc53-1, temperature: 37 C
[7] = genetic background: das1 deletion, temperature: 30 C
[8] = genetic background: das1 deletion, temperature: 37 C
[9] = genetic background: doa10 deletion, temperature: 30 C
[10] = genetic background: wild type, temperature: 30 C
[11] = genetic background: wild type, temperature: 37 C

AADPLSNDALFK [BRX1 C-terminal 12 aa]
protein stability index (Saccharomyces cerevisiae [1]; [4]): 0.733 ± 0.063
protein stability index (Saccharomyces cerevisiae [1]; genetic background: wild type): 0.737 ± 0.12

AADRDNKKDEST [XRN1 C-terminal 12 aa]
protein stability index (Saccharomyces cerevisiae [1]; [4]): 0.6981 ± 0.0034
protein stability index (Saccharomyces cerevisiae [1]; genetic background: wild type): 0.668 ± 0.057

AAGKANKQFAKF [RPS11A C-terminal 12 aa]
protein stability index (Saccharomyces cerevisiae [1]; [4]): 0.8136 ± 0.0019
protein stability index (Saccharomyces cerevisiae [1]; genetic background: wild type): 0.807 ± 0.042

AAIPVILAKIKV [SHE4 C-terminal 12 aa]
protein stability index (Saccharomyces cerevisiae [1]; [4]): 0.502 ± 0.019
protein stability index (Saccharomyces cerevisiae [1]; genetic background: wild type): 0.56 ± 0.13

ACYVQLKKSGAF [COX8 C-terminal 12 aa]
protein stability index (Saccharomyces cerevisiae [1]; [4]): 0.6966 ± 0.0035
protein stability index (Saccharomyces cerevisiae [1]; genetic background: wild type): 0.669 ± 0.024

AGATTSRFIPLK [RPS15 C-terminal 12 aa]
protein stability index (Saccharomyces cerevisiae [1]; [4]): 0.685 ± 0.023
protein stability index (Saccharomyces cerevisiae [1]; genetic background: wild type): 0.652 ± 0.01

AGTDKNTHPSSQ [SNT2 C-terminal 12 aa]
protein stability index (Saccharomyces cerevisiae [1]; [4]): 0.692 ± 0.0098
protein stability index (Saccharomyces cerevisiae [1]; genetic background: wild type): 0.694 ± 0.019

AIEEGAGAFLLS [UFD4 C-terminal 12 aa]
protein stability index (Saccharomyces cerevisiae [1]; [4]): 0.706 ± 0.03
protein stability index (Saccharomyces cerevisiae [1]; genetic background: wild type): 0.6771 ± 0.0053

AIFTAFTQVVLI [TOH1 C-terminal 12 aa]
protein stability index (Saccharomyces cerevisiae [1]; [4]): 0.4858 ± 0.0044
protein stability index (Saccharomyces cerevisiae [1]; genetic background: wild type): 0.4983 ± 0.00094

AIHLEAVSLVDC [CIS3 C-terminal 12 aa]
protein stability index (Saccharomyces cerevisiae [1]; [4]): 0.599 ± 0.011
protein stability index (Saccharomyces cerevisiae [1]; genetic background: wild type): 0.611 ± 0.024

AKELISAIFFGE [TAF6 C-terminal 12 aa]
protein stability index (Saccharomyces cerevisiae [1]; [4]): 0.698 ± 0.057
protein stability index (Saccharomyces cerevisiae [1]; genetic background: wild type): 0.6614 ± 0.0044

AKGLAKTEIANQ [GIR2 C-terminal 12 aa]
protein stability index (Saccharomyces cerevisiae [1]; [4]): 0.686 ± 0.018
protein stability index (Saccharomyces cerevisiae [1]; genetic background: wild type): 0.656 ± 0.013

AKPAYHWQTRYR [KIN3 C-terminal 12 aa]
protein stability index (Saccharomyces cerevisiae [1]; [4]): 0.703 ± 0.021
protein stability index (Saccharomyces cerevisiae [1]; genetic background: wild type): 0.665 ± 0.017

AKVYFLGRDSSI [NDE1 C-terminal 12 aa]
protein stability index (Saccharomyces cerevisiae [1]; [4]): 0.708 ± 0.016
protein stability index (Saccharomyces cerevisiae [1]; genetic background: wild type): 0.741 ± 0.076

ALENENKRKAKL [CAT2 C-terminal 12 aa]
protein stability index (Saccharomyces cerevisiae [1]; [4]): 0.79 ± 0.015
protein stability index (Saccharomyces cerevisiae [1]; genetic background: wild type): 0.798 ± 0.11

ALGLAGAVMMLL [SPI1 C-terminal 12 aa]
protein stability index (Saccharomyces cerevisiae [1]; [4]): 0.693 ± 0.013
protein stability index (Saccharomyces cerevisiae [1]; genetic background: wild type): 0.746 ± 0.025

ALQKQIKNALPC [PTP2 C-terminal 12 aa]
protein stability index (Saccharomyces cerevisiae [1]; [4]): 0.694 ± 0.024
protein stability index (Saccharomyces cerevisiae [1]; genetic background: wild type): 0.69 ± 0.029

ALSCLGHSKIFI [YML094C-A C-terminal 12 aa]
protein stability index (Saccharomyces cerevisiae [1]; [4]): 0.7082 ± 0.0041
protein stability index (Saccharomyces cerevisiae [1]; genetic background: wild type): 0.706 ± 0.012

ALSKDGIYTITN [PAU13 C-terminal 12 aa]
protein stability index (Saccharomyces cerevisiae [1]; [4]): 0.706 ± 0.027
protein stability index (Saccharomyces cerevisiae [1]; genetic background: wild type): 0.679 ± 0.014

AMDYAISIENIV [RPN12 C-terminal 12 aa]
protein stability index (Saccharomyces cerevisiae [1]; [4]): 0.665 ± 0.015
protein stability index (Saccharomyces cerevisiae [1]; genetic background: wild type): 0.646 ± 0.015

ANFECSSWKFAS [EFM5 C-terminal 12 aa]
protein stability index (Saccharomyces cerevisiae [1]; [4]): 0.7167 ± 0.0049
protein stability index (Saccharomyces cerevisiae [1]; genetic background: wild type): 0.646 ± 0.0085

APPKLNNSSESE [STE23 C-terminal 12 aa]
protein stability index (Saccharomyces cerevisiae [1]; [4]): 0.681 ± 0.0074
protein stability index (Saccharomyces cerevisiae [1]; genetic background: wild type): 0.674 ± 0.0091

AQGGFAQWATGQ [APS3 C-terminal 12 aa]
protein stability index (Saccharomyces cerevisiae [1]; [4]): 0.718 ± 0.0089
protein stability index (Saccharomyces cerevisiae [1]; genetic background: wild type): 0.683 ± 0.04

AQNFILFHDYLH [YLR365W C-terminal 12 aa]
protein stability index (Saccharomyces cerevisiae [1]; [4]): 0.698 ± 0.012
protein stability index (Saccharomyces cerevisiae [1]; genetic background: wild type): 0.711 ± 0.032

ASFVEVNAEVFL [FRS1 C-terminal 12 aa]
protein stability index (Saccharomyces cerevisiae [1]; [4]): 0.7129 ± 0.0051
protein stability index (Saccharomyces cerevisiae [1]; genetic background: wild type): 0.7111 ± 0.0032

ASNGVRLSEIGW [SNZ1 C-terminal 12 aa]
protein stability index (Saccharomyces cerevisiae [1]; [4]): 0.699 ± 0.011
protein stability index (Saccharomyces cerevisiae [1]; genetic background: wild type): 0.694 ± 0.027

ASVIPGGCLGNL [ZPS1 C-terminal 12 aa]
protein stability index (Saccharomyces cerevisiae [1]; [4]): 0.703 ± 0.018
protein stability index (Saccharomyces cerevisiae [1]; genetic background: wild type): 0.685 ± 0.018

AVASFFLRNKRR [FIS1 C-terminal 12 aa]
protein stability index (Saccharomyces cerevisiae [1]; [4]): 0.7073 ± 0.0052
protein stability index (Saccharomyces cerevisiae [1]; genetic background: wild type): 0.69 ± 0.027

AVENQFFSQKKK [ACS2 C-terminal 12 aa]
protein stability index (Saccharomyces cerevisiae [1]; [4]): 0.707 ± 0.044
protein stability index (Saccharomyces cerevisiae [1]; genetic background: wild type): 0.697 ± 0.034

AVNALNEAMDKL [BNA5 C-terminal 12 aa]
protein stability index (Saccharomyces cerevisiae [1]; [4]): 0.677 ± 0.015
protein stability index (Saccharomyces cerevisiae [1]; genetic background: wild type): 0.696 ± 0.11

AVYEELVHELFH [PSP1 C-terminal 12 aa]
protein stability index (Saccharomyces cerevisiae [1]; [4]): 0.72 ± 0.021
protein stability index (Saccharomyces cerevisiae [1]; genetic background: wild type): 0.675 ± 0.031

AYEPFSFRAIIE [STV1 C-terminal 12 aa]
protein stability index (Saccharomyces cerevisiae [1]; [4]): 0.686 ± 0.008
protein stability index (Saccharomyces cerevisiae [1]; genetic background: wild type): 0.723 ± 0.035

CAAVEKGPILDA [THI74 C-terminal 12 aa]
protein stability index (Saccharomyces cerevisiae [1]; [4]): 0.691 ± 0.019
protein stability index (Saccharomyces cerevisiae [1]; genetic background: wild type): 0.682 ± 0.021

CGCQLAVAMTTC [YFL015W-A C-terminal 12 aa]
protein stability index (Saccharomyces cerevisiae [1]; [4]): 0.553 ± 0.039
protein stability index (Saccharomyces cerevisiae [1]; genetic background: wild type): 0.513 ± 0.013

VSVVLKTQRVVC
protein stability index (Saccharomyces cerevisiae [2]; [5]): 0.595 ± 0.026
protein stability index (Saccharomyces cerevisiae [2]; [6]): 0.607 ± 0.008
protein stability index (Saccharomyces cerevisiae [2]; [7]): 0.432 ± 0.039
protein stability index (Saccharomyces cerevisiae [2]; [8]): 0.60289 ± 0.00044
protein stability index (Saccharomyces cerevisiae [2]; [9]): 0.3 ± 0.0041
protein stability index (Saccharomyces cerevisiae [2]; [10]): 0.346 ± 0.033
protein stability index (Saccharomyces cerevisiae [2]; [11]): 0.535 ± 0.01
protein stability index (Saccharomyces cerevisiae [3]): 0.4809 ± 0.0012

VTFWISLVYVLV
protein stability index (Saccharomyces cerevisiae [2]; [5]): 0.192 ± 0.015
protein stability index (Saccharomyces cerevisiae [2]; [6]): 0.264 ± 0.022
protein stability index (Saccharomyces cerevisiae [2]; [7]): 0.18 ± 0.023
protein stability index (Saccharomyces cerevisiae [2]; [8]): 0.35 ± 0.0028
protein stability index (Saccharomyces cerevisiae [2]; [9]): 0.148 ± 0.0088
protein stability index (Saccharomyces cerevisiae [2]; [10]): 0.16 ± 0.017
protein stability index (Saccharomyces cerevisiae [2]; [11]): 0.279 ± 0.027
protein stability index (Saccharomyces cerevisiae [3]): 0.218 ± 0.011

VTVWVFVFLRGL
protein stability index (Saccharomyces cerevisiae [2]; [5]): 0.319 ± 0.0069
protein stability index (Saccharomyces cerevisiae [2]; [6]): 0.393 ± 0.015
protein stability index (Saccharomyces cerevisiae [2]; [7]): 0.315 ± 0.029
protein stability index (Saccharomyces cerevisiae [2]; [8]): 0.454 ± 0.029
protein stability index (Saccharomyces cerevisiae [2]; [9]): 0.294 ± 0.0043
protein stability index (Saccharomyces cerevisiae [2]; [10]): 0.302 ± 0.019
protein stability index (Saccharomyces cerevisiae [2]; [11]): 0.453 ± 0.0035
protein stability index (Saccharomyces cerevisiae [3]): 0.374 ± 0.052

VVACCVVFWVLP
protein stability index (Saccharomyces cerevisiae [2]; [5]): 0.232 ± 0.017
protein stability index (Saccharomyces cerevisiae [2]; [6]): 0.469 ± 0.042
protein stability index (Saccharomyces cerevisiae [2]; [7]): 0.27 ± 0.028
protein stability index (Saccharomyces cerevisiae [2]; [8]): 0.481 ± 0.016
protein stability index (Saccharomyces cerevisiae [2]; [9]): 0.231 ± 0.011
protein stability index (Saccharomyces cerevisiae [2]; [10]): 0.292 ± 0.022
protein stability index (Saccharomyces cerevisiae [2]; [11]): 0.507 ± 0.013
protein stability index (Saccharomyces cerevisiae [3]): 0.437 ± 0.086
